Test results from patent publication US20240044920A1 (Alexion, published 2024).

T1: human ceruloplasmin (human, UniProt P00450 20-1065)
T1 construct: also called CP; purified CP
T1 sequence: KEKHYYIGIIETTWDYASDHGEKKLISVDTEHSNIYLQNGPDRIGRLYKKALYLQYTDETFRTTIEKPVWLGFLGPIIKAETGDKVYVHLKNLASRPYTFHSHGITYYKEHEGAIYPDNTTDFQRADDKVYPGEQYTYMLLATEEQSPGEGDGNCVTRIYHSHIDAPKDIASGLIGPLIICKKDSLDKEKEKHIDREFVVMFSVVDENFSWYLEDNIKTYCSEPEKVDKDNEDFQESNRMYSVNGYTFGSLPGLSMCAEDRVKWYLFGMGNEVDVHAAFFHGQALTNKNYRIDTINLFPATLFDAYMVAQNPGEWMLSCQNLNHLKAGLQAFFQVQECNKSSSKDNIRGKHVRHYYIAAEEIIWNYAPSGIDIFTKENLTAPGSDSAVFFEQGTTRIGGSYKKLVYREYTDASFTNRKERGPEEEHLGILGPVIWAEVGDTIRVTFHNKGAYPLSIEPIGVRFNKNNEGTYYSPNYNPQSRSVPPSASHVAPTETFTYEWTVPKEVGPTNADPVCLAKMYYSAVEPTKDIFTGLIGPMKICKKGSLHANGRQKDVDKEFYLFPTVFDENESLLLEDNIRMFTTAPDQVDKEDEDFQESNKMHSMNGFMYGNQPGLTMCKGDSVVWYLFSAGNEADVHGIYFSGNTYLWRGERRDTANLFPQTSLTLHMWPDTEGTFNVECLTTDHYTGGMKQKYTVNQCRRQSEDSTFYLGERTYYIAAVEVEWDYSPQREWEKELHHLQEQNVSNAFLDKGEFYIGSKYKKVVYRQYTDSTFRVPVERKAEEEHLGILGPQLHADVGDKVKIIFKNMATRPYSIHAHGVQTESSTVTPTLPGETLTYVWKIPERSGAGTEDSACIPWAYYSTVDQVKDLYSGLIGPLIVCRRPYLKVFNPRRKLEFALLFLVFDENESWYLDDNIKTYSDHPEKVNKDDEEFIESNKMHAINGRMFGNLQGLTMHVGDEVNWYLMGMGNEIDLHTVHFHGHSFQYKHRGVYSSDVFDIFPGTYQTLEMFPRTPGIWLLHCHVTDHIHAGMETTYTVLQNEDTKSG

B1: anti-CP mAb D (antibody, V domains shown)
VH: QEQLVESGGGLVQPEGSLTLTCKASGFDFSSYWMCWVRQAPGKRPEWIACIYGGDGTSYFAGWAKGRFTISKTSSTTVTLQMTSLTAADTATYFCARADYYVYVDGGYGHAYDLWGPGTLVTVSS
VL: DIVMTQTPASVEAAVGGSVTIKCQASDDIYSYLAWYQQKPGQPPKLLIFDASSLPSGVPSRFKGSGSGTQFTLTISGVQCADAATYYCQNYYGSSSSVHAFGGGTEVVVKG
notes: Recombinant full-length rabbit IgG from HEK-293; tested as conditioned medium, Protein A-purified and biotinylated
B2: anti-CP mAb C (antibody, V domains shown)
VH: QSVEESGGRLVTPGTPLTLTCTASGFSLSRYYMSWVRQAPGKGLEWIGMIYPSSGSTWYASWVKGRFTISATATSVDLKITSPTTEDTATYFCVRDRYPGYNGDSFNLWGQGTLVTVSS
VL: AQVLTQTASPVSAAVGSTVTINCQASQSVYNNNYLAWFQQKPGQPPKRLIYQASKLAIGVPSRFSGSGSGTQFTLTISDVQCDDAATYYCLGSYGCNSVDCNVFGGGTEVVVKG
notes: Recombinant full-length rabbit IgG from HEK-293; also called mAb2
B3: anti-CP mAb B (antibody, V domains shown)
VH: QQQLEESGGGLVKPGGTLTLTCKASGIDFSSYYYMCWVRQAPGKGLEWIACIYVIDDTIYCANWAKGRFTISKTSSTTVTLQMTSLTAADTATYFCARDGSSGIRDYFDLWGPGTLVTVSS
VL: AYDMTQTPASVEVAVGGTVTIKCQASESVSTWLAWYQQKPGQPPKLLIYKASDLASGVPSRFKGSGSGTEFTLTISGVECADAATYYCQQGYTYNNVENVFGGGTEVVVKG
notes: as for B1
B4: anti-CP mAb H (antibody, V domains shown)
VH: QSVEESGGRLVTPGTPLTLTCTVSGFSLSTYAMGWVRQAPGKGLEYIGIIYGGSGTFYASWAKGRFTISKTSTTVDLKITSPTTEDTATYFCARDGDDSYFDYFNLWGQGTLVTVSS
VL: AAVLTQTPASVSAAVGGTVSISCQSNENIGSNLAWYQQKPGQPPKLLIYGASTLTSGVPSRFKGSGSGTAFTLTISGVQCDDAATYYCLGGYLSTSDTTFGGGTAVVVKG
notes: as for B1
B5: anti-CP mAb G (antibody, V domains shown)
VH: QSLEESGGRLVTPGTLLTLTCTVSGFSLSSNAMSWVRQAPGEGLEWIGTISSRGSTYYANWAKGRFTISKTSTTVDLKITSPTTEDTATYFCARSSLAGYEPYYFKLWGQGTLVTVSS
VL: DVVMTQTASPVSAAVGGTVTIKCQASESISSYLAWYQQKPGQPPKLLIYGASDLASGVPSRFKGSGSGTEFTLTISDLECADAATYYCQSYYGLSRNGYGNVFGGGTEVVVKG
notes: Recombinant full-length rabbit IgG from HEK-293; also called mAb3
B6: anti-CP mAb A (antibody, V domains shown)
VH: QSLEESGGDLVKPGASLTLTCKASGFDLSRFYYMCWVRQAPGKGLEWIACIYAGRTGNTYYASWAKGRFTISKTSSTTVTLQMTSLTAADTATYFCARASGDFLAYTYAMDLWGPGTLVTVSS
VL: AAVLTQTPASVSAAVGGTVTISCQASQSVDNNNYLAWYQQKPGQPPKLLIYEASKLASGVPSRFSGSGSGTQFTLTISDVQCDDATTYYCAGGYSSSADANAFGGGTEVVVKG
notes: as for B1

What follows are binders tested against T1, human ceruloplasmin (assay: competition ELISA on coated CP, biotinylated probe; competitor: mAb A).
Description: (§1) To assess whether any of the 8 anti-CP antibodies competed with each other for binding to CP, the following ELISA study was performed.
(§2) Briefly, CP was coated onto plates at 0.4 ug/mL overnight. Plates were then blocked with 1% BSA for 4 hours, incubated with 10 ug/mL unlabeled blocking antibody for 1 hour, and then, without washing, 50 ng/mL of biotinylated probe antibody for 1 hour. Plates were washed and subsequently incubated with SA-HRP for 30 minutes, followed by another wash. Plates were then incubated with TMB substrate for either 30 minutes or 15 minutes, as noted below, and the reaction was stopped by adding 0.18 M sulfuric acid and read at A450. The experiment was performed on two plates with plate 1 having a TMB incubation time of 30 minutes and plate 2 having a TMB incubation time of 15 minutes. Weaker binders to coated CP were tested on plate 1 and stronger binders on plate 2, with some duplication across plates. Probe Ab/blocking Ab interactions are shown in Table 3, and a summary of the binning results for all 8 anti-CP mAbs and for the 5 mAbs showing the most robust signal on coated CP (as shown in FIG. 6) is provided in Tables 4 and 5.

probe binding, % of diluent control	Binder
107%	B1
100%	B2
94%	B3
93%	B4
91%	B5

These binders were tested against T1, human ceruloplasmin (assay: competition ELISA on coated CP, biotinylated probe; competitor: mAb B).
Description: as §1, §2

probe binding, % of diluent control	Binder
98%	B1
95%	B2
110%	B4
183%	B6
93%	B5

The binders below were run against T1, human ceruloplasmin (assay: competition ELISA on coated CP, biotinylated probe; competitor: mAb C).
Description: as §1, §2

probe binding, % of diluent control	Binder
72%	B1
78%	B3
67%	B4
138%	B6
108%	B5

These binders were tested against T1, human ceruloplasmin (assay: competition ELISA on coated CP, biotinylated probe; competitor: mAb D).
Description: as §1, §2

probe binding, % of diluent control	Binder
93%	B2
34%	B3
33%	B4
113%	B6
103%	B5

What follows are binders tested against T1, human ceruloplasmin (assay: competition ELISA on coated CP, biotinylated probe; competitor: mAb E).
Description: as §1, §2

probe binding, % of diluent control	Binder
98%	B1
99%	B2
87%	B3
79%	B4
127%	B6
102%	B5

The binders below were run against T1, human ceruloplasmin (assay: competition ELISA on coated CP, biotinylated probe; competitor: mAb F).
Description: as §1, §2

probe binding, % of diluent control	Binder
100%	B1
97%	B2
95%	B3
94%	B4
-2%	B6
84%	B5

The binders below were run against T1, human ceruloplasmin (assay: competition ELISA on coated CP, biotinylated probe; competitor: mAb G).
Description: as §1, §2

probe binding, % of diluent control	Binder
100%	B1
97%	B2
98%	B3
95%	B4
35%	B6

What follows are binders tested against T1, human ceruloplasmin (assay: competition ELISA on coated CP, biotinylated probe; competitor: mAb H).
Description: as §1, §2

probe binding, % of diluent control	Binder
9%	B1
85%	B2
204%	B3
115%	B6
106%	B5

The binders below were run against T1, human ceruloplasmin (assay: competition ELISA on coated CP, biotinylated probe; competitor: CP-pAb).
Description: as §1, §2

probe binding, % of diluent control	Binder
10%	B1
3%	B2
2%	B3
2%	B4
17%	B6
6%	B5

What follows are binders tested against T1, human ceruloplasmin (assay: capture ELISA: mAb (CM, 50 ng/mL) on anti-rabbit IgG-Fc; 20 ng/mL purified human CP).
Description: (§3) Ceruloplasmin binding by the 28 recombinant anti-CP mAbs was tested as follows. Clear 96-well plates (Nunc, Maxisorp) were coated and incubated overnight at 4 degrees with 10 ug/mL goat anti-rabbit IgG-Fc (Bethyl Laboratories) in BupH carbonate-bicarbonate buffer (ThermoFisher). The coating solution was discarded, and the plates were blocked with 1% BSA in PBS at room temperature for 2 hours and then the blocking solution was discarded. The 28 anti-CP mAb transient conditioned media were diluted to 50 ng/mL in PBS-T containing 1% BSA and incubated on the blocked plates for 1 hour at room temperature. Negative control wells were incubated with PBS-T containing 1% BSA alone or with transient conditioned medium containing non-CP-specific rabbit mAb at 50 ng/mL.

A450	Binder
1.03 A450	B1
1.09 A450	B2
1.02 A450	B3
0.924 A450	B4
1.09 A450	B6
0.987 A450	B5

What follows are binders tested against T1, human ceruloplasmin (assay: capture ELISA: mAb (CM, 50 ng/mL) on anti-rabbit IgG-Fc; endogenous CP in Li-heparin human plasma 1:10,000).
Description: as §3

A450	Binder
1.25 A450	B1
1.27 A450	B2
1.32 A450	B3
1.03 A450	B4
1.4 A450	B6
1.18 A450	B5
